# Data as given in patent US20240352438A1, “MEANS AND METHODS FOR DETOXIFYING OCHRATOXIN A” (DSM Austria GmbH, priority 2021, published 2024).
# Experiments:
# [1] = OTA detoxification activity assay (specific activity, fluorescence reduction ex/em 390/450 nm); format: biochemical; conditions: SEQ ID NO: 2 = 100%
# How it was run: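 Recombinant enzyme preparation with 200 ng/mL OTA in 100 mM sodium phosphate, at pH 6.0 and pH 7.5, 37° C. Degradation followed as the fall in fluorescence at ex/em 390/450 nm. Specific activity taken from the initial linear slope; one unit degrades 1 μmol OTA per min at a starting OTA of […].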
# [2] = Thermostability assay: residual OTA detoxification activity after 10 min incubation at 45-99° C. (T50); format: physicochemical; conditions: 0.1 mg/mL protein in 20 mM Tris-HCl pH 7.5, residual OTA detoxification activity relative to 4° C. reference aliquot
# How it was run: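 Purified enzyme at 0.1 mg/mL in 20 mM Tris-HCl pH 7.5 was heated 10 min at 45–99 °C, then held at 4 °C. Residual OTA detoxification activity was expressed relative to an aliquot kept at 4 °C throughout; T50 is the temperature range giving 50% activity loss.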
Molecule,"Specific OTA detoxification activities in % compared to the enzyme of SEQ ID NO: 2, pH 6.0 [1]","Specific OTA detoxification activities in % compared to the enzyme of SEQ ID NO: 2, pH 7.5 [1]",T50 (temperature at which 50% of the initial activity was maintained) [2]
"44 (protein, exemplary polypeptide) MYSLAIRNGIVFDGEKFIGKTNIYVDGDKIVKITNERLDAKEEVNAEGYFVMPGLIDAHLHLTGIRGGSLLMGYLLDDPRTRLLRAANWARELLMAGFTTVRDCGEPNSIILRNAINEGIIPGPRIIAAGSPITQTFGHAELSHSLPLEWSIQLGFGEICDGVDECIKAARKVLRSGADFIKIMATGGVLSERDRPEWPQLTPEEMSAIVREAEKVGTYVAAHAHGDKGARIAVEAGVRTIEHGSLITEETVKLMAEKGVSLTPTLSIQELVYKYGKQMGIDPWGLEKIGQVREGVINSIKLARKYGVMILAGTDLGFKTGLDIDMGKNWVEVKLLVELGGLSSEEALRAATGNASKMLRLNTGIIREGYLADIVLINGNPLENINDIARVSTVIKGGKVTVENGKLI",84.00%,84.00%,>99 °C
"45 (protein, exemplary polypeptide) MYSLAIRNGIVFDGEKFIGKTNIYVDGDKIVKITNERLDAKEEVNAEGYFVMPGLIDAHLHLTGIRGGSLLMGYLLDDPRTRLLRAANWARELLMAGFTTVRDCGEPNSIILRNAINEGIIPGPRIIAAGSPITQTFGHAELSHSLPLEWSIQLGFGEICDGVDECIKAARKVLRSGADFIKIMATGGVLSERDRPEWPQLTPEEMSAIVREAEKVGTYVAAHAHGDKGARIAVEAGVRTIEHGSLITEETVKLMAEKGVSLTPTLSIQELIYKFGKQMGIDPWGLEKIGQVREGVINSIKLARKYGVMILAGTDLGFKTGLDIDMGKNWVEVKLLVELGGLSSEEALRAATGNASKMLRLNTGIIREGYLADIVLINGNPLENINDIARVSTVIKGGKVTVENGKLI",168.00%,138.00%,>99 °C
"46 (protein, exemplary polypeptide) MYSLAIRNGIVFDGEKFIGKTNIYVDGDKIVKITNERLDAKEEVNAEGYFVMPGLIDAHLHLTGIRGGSLLMGYLLDDPRTRLLRAANWARELLMAGFTTVRDCGEPNSIILRNAINEGIIPGPRIIAAGSPITQTFGHAELSHSLPLEWSIQLGFGEICDGVDECIKAARKVLRSGADFIKIMATGGVLSERDRPEWPQLTPEEMSAIVREAEKVGTYVAAHAHGDKGARIAVEAGVRTIEHGSLITEETVKLMAEKGVSLTPTLSIQELIYKHGKQMGIDPWGLEKIGQVREGVINSIKLARKYGVMILAGTDLGFKTGLDIDMGKNWVEVKLLVELGGLSSEEALRAATGNASKMLRLNTGIIREGYLADIVLINGNPLENINDIARVSTVIKGGKVTVENGKLI",82.00%,66.00%,>99 °C
"47 (protein, exemplary polypeptide) MYSLAIRNGIVFDGEKFIGKTNIYVDGDKIVKITNERLDAKEEVNAEGYFVMPGLIDAHLHLTGARGGSLLMGYLLDDPRTRLLRAANWARELLMAGFTTVRDCGGPNSIILRNAINEGIIPGPRIIAAGSAITQTFGHAELSHSLPLEWSIQLGFGEICDGVDECIKAARKVLRSGADFIKIMATGGVLSERDRPEWPQLTPEEMSAIVREAEKVGTYVAAHAHGDKGARIAVEAGVRTIEHGSLITEETVKLMAEKGVSLTPTLSAIELVYKVGKQMGIDPWGLEKIGQVREGVINSIKLARKYGVMILAGTDLGVKTGLDIDMGKNWVEVKLLVELGGLSSEEALRAATGNASKMLRLNTGIIREGYLADIVLINGNPLENINDIARVSTVIKGGKVTVENGKLI",85.00%,267.00%,>99 °C
"35 (protein, exemplary polypeptide) MYSLAIRNGIVFDGEKFIGKTNIYVDGDKIVKITNERLDAKEEVNAEGYFVMPGLIDAHLHLTGGRGGSLLMGYLLDDPRTRLLRAANWARELLMAGFTTVRDCGEPNSIILRNAINEGIIPGPRIIAAGSPITQTFGHAELSHSLPLEWSIQLGFGEICDGVDECIKAARKVLRSGADFIKIMATGGVLSERDRPEWPQLTPEEMSAIVREAEKVGTYVAAHAHGDKGARIAVEAGVRTIEHGSLITEETVKLMAEKGVSLTPTLSIQELIYKYGKQMGIDPWGLEKIGQVREGVINSIKLARKYGVMILAGTDLGFKTGLDIDMGKNWVEVKLLVELGGLSSEEALRAATGNASKMLRLNTGIIREGYLADIVLINGNPLENINDIARVSTVIKGGKVTVENGKLI",56.00%,136.00%,99 °C
"36 (protein, exemplary polypeptide) MYSLAIRNGIVFDGEKFIGKTNIYVDGDKIVKITNERLDAKEEVNAEGYFVMPGLIDAHLHLTGARGGSLLMGYLLDDPRTRLLRAANWARELLMAGFTTVRDCGEPNSIILRNAINEGIIPGPRIIAAGSPITQTFGHAELSHSLPLEWSIQLGFGEICDGVDECIKAARKVLRSGADFIKIMATGGVLSERDRPEWPQLTPEEMSAIVREAEKVGTYVAAHAHGDKGARIAVEAGVRTIEHGSLITEETVKLMAEKGVSLTPTLSIQELIYKYGKQMGIDPWGLEKIGQVREGVINSIKLARKYGVMILAGTDLGFKTGLDIDMGKNWVEVKLLVELGGLSSEEALRAATGNASKMLRLNTGIIREGYLADIVLINGNPLENINDIARVSTVIKGGKVTVENGKLI",117.00%,309.00%,99 °C
"37 (protein, exemplary polypeptide) MYSLAIRNGIVFDGEKFIGKTNIYVDGDKIVKITNERLDAKEEVNAEGYFVMPGLIDAHLHLTGIRGGSLLMGYLLDDPRTRLLRAANWARELLMAGFTTVRDCGGPNSIILRNAINEGIIPGPRIIAAGSPITQTFGHAELSHSLPLEWSIQLGFGEICDGVDECIKAARKVLRSGADFIKIMATGGVLSERDRPEWPQLTPEEMSAIVREAEKVGTYVAAHAHGDKGARIAVEAGVRTIEHGSLITEETVKLMAEKGVSLTPTLSIQELIYKYGKQMGIDPWGLEKIGQVREGVINSIKLARKYGVMILAGTDLGFKTGLDIDMGKNWVEVKLLVELGGLSSEEALRAATGNASKMLRLNTGIIREGYLADIVLINGNPLENINDIARVSTVIKGGKVTVENGKLI",42.00%,187.00%,>99 °C
"38 (protein, exemplary polypeptide) MYSLAIRNGIVFDGEKFIGKTNIYVDGDKIVKITNERLDAKEEVNAEGYFVMPGLIDAHLHLTGIRGGSLLMGYLLDDPRTRLLRAANWARELLMAGFTTVRDCGSPNSIILRNAINEGIIPGPRIIAAGSPITQTFGHAELSHSLPLEWSIQLGFGEICDGVDECIKAARKVLRSGADFIKIMATGGVLSERDRPEWPQLTPEEMSAIVREAEKVGTYVAAHAHGDKGARIAVEAGVRTIEHGSLITEETVKLMAEKGVSLTPTLSIQELIYKYGKQMGIDPWGLEKIGQVREGVINSIKLARKYGVMILAGTDLGFKTGLDIDMGKNWVEVKLLVELGGLSSEEALRAATGNASKMLRLNTGIIREGYLADIVLINGNPLENINDIARVSTVIKGGKVTVENGKLI",11.00%,53.00%,>99 °C
